Reference: paper PMC4872099 (Nucleic Acids Research, 2016)
Where “and” joins values, the source holds several entries; their conditions need not be identical. Equal values may be shown once.

Columns and labels:
[1] = molecular target: phage T4 gp16 oligomerization domain alone (N- and C-terminal domains deleted) (bacteriophage T4); assay: SEC
[2] = molecular target: the molecule itself; assay: SEC

Row | Molecule | binding result [2] | stoichiometry N [2] | further results
1 | phage T4 gp16 oligomerization domain alone (N- and C-terminal domains deleted) (domain or fragment) | – | – | stoichiometry N [1]: 11 and 12
2 | phage T4 small terminase (TerS) gp16, wild type (natural protein, bacteriophage T4, UniProt P17311 1-164, looked up) MEGLDINKLLDISDLPGIDGEEIKVYEPLQLVEVKSNPQNRTPDLEDDYGVVRRNMHFQQQMLMDAAKIFLETAKNADSPRHMEVFATLMGQMTTTNREILKLHKDMKDITSEQVGTKGAVPTGQMNIQNATVFMGSPTELMDEIGDAYEAQEAREKVINGTTD | binds | – | –
3 | phage T4 gp16 mutant 3M (R98A, K102A, K108A) (natural protein, bacteriophage T4, UniProt P17311 1-164, looked up) MEGLDINKLLDISDLPGIDGEEIKVYEPLQLVEVKSNPQNRTPDLEDDYGVVRRNMHFQQQMLMDAAKIFLETAKNADSPRHMEVFATLMGQMTTTNAEILALHKDMADITSEQVGTKGAVPTGQMNIQNATVFMGSPTELMDEIGDAYEAQEAREKVINGTTD | binds | – | –
4 | phage T4 gp16 mutant 4M (R98A, K102A, K105A, K108A) (natural protein, bacteriophage T4, UniProt P17311 1-164, looked up) MEGLDINKLLDISDLPGIDGEEIKVYEPLQLVEVKSNPQNRTPDLEDDYGVVRRNMHFQQQMLMDAAKIFLETAKNADSPRHMEVFATLMGQMTTTNAEILALHADMADITSEQVGTKGAVPTGQMNIQNATVFMGSPTELMDEIGDAYEAQEAREKVINGTTD | – | ~6 | –
5 | phage T4 gp16 N-C fusion (amino acids 36-118 deleted; lacks helix alpha1 and helix alpha2) (natural protein, bacteriophage T4, UniProt P17311 1-164, looked up) MEGLDINKLLDISDLPGIDGEEIKVYEPLQLVEVKGAVPTGQMNIQNATVFMGSPTELMDEIGDAYEAQEAREKVINGTTD | – | 2 | –
